{
  "source": "patent US20060089302A1",
  "about": "“Hsp70-derived peptides and uses thereof in the diagnosis and treatment of autoimmune diseases” (priority 2002, published 2006)",
  "key": {"[1]": {"test_system": "serum IgG anti-hsp60, anti-hsp70, anti-hsp90, anti-tetanus toxoid", "experiment": "Determination of auto-antibodies (antibody capture ELISA on antigen-coated plates)", "assay_type": "binding, human", "conditions": "for IgG antibodies to the antigen in serum, Mean ± SD: group mean", "description": "All of the serum samples that were collected were stored in aliquotes at −20° C. and thawed before each assay. Total human IgG anti-hsp60, anti-hsp70, and anti-hsp90, as well as anti-tetanus toxoid proteins were detected by the antibody capture-type enzyme immunoassay ELISA [Maggio, M. T. (1981) Enzyme Immunoassay, CRC Press, Boca Raton, USA]. 96-well micro titer plates (Dynatech) were coated with the protein according to the antibody being tested. Serum samples were distributed at dilutions in the range of 1:50 to 1:70 into the pre-coated wells for the protein detection assay. Thus, any IgG anti-hsp60, anti-hsp70, anti-hsp90, or anti-tetanus toxoid present should be bound by the immobilized peptide or protein. After washing off unbound material, a mouse monoclonal anti-human IgG antibody conjugated to alkaline phosphatase (AP) was added to the wells. After an additional washing step to remove any unbound anti-enzyme reagent, the AP substrate p-nitrophenyl phosphate (pNPP) solution was added. The intensity of the color developed was measured using an Anthos htll ELISA reader at λ=405 nm. The amount of antibody detected was represented as Units of Optical Density at λ=405 nm. Patients and control subjects were assayed in the same experiment.\nThe InStat 2.01 computer program was used for the statistical analysis. The results obtained from the samples of healthy individuals were used to determine the cutoff for each assay, which was established as the mean plus two standard deviations (SDs). […] The results were presented as the percentage of positive from the total tested group.\nLevels of IgG antibodies to hsp60, hsp70, and hsp90 were measured in the sera of 20 Type 1 Diabetes children (P1-P5, P7-P21; Table 3A) and two control groups, 10 normoglycemic children (Table 3B) and 15 healthy adult blood donors (Table 3C). The level of the antibodies was scored as positive when it was greater than the cut-off level (cut-off levels were established based on the mean value of antibody levels from the normoglycemic children plus two standard deviations)."}, "[2]": {"test_system": "peripheral blood mononuclear cells (PBMC) / T-cells", "conditions": "25 newly diagnosed Type 1 Diabetes adult patients; Abulafia-Lapid et al. 1999; cited from earlier work"}, "[3]": {"test_system": "peripheral blood mononuclear cells (PBMC) / T-cells", "experiment": "T-cell proliferation assay (3H-Thymidine incorporation, stimulation index)", "assay_type": "cell-based, human", "conditions": "for T-cell proliferative response, S.I., Mean ± SD: group mean"}},
  "note": "Values joined by “and” are separate entries in the source; they are usually repeats but may differ in a detail not shown here. Equal values may be shown once.",
  "data": [
    {"molecule": "hsp60: recombinant human hsp60 (StressGen, Canada), 60 kDa heat-shock protein (protein) AKDVKFGADARALMLQGVDLLADAVAVTMGPKGRTVIIEQSWGSPKVTKDGVTVAKSIDLKDKYKNIGAKLVQDVANNTNEEAGDGTTTATVLARSIAKEGFEKISKGANPVEIRRGVMLAVDAVIAELKKQSKPVTTPEEIAQVATISANGDKEIGNIISDAMKKVGRKGVITVKDGKTLNDELEIIEGMKFDRGYISPYFINTSKGQKCEFQDAYVLLSEKKISSIQSIVPALEIANAHRKPLVIIAEDVDGEALSTLVLNRLKVGLQVVAVKAPGFGDNRKNQLKDMAIATGGAVFGEEGLTLNLEDVQPHDLGKVGEVIVTKDDAMLLKGKGDKAQIEKRIQEIIEQLDVTTSEYEKEKLNERLAKLSDGVAVLKVGGTSDVEVNEKKDRVTDALNATRAAVEEGIVLGGGCALLRCIPALDSLTPANEDQKIGIEIIKRTLKIPAMTIAKNAGVEGSLIVEKIMQSSSEVGYDAMAGDFVNMVEKGIIDPTKVVRTALLDAAGVASLLTTAEVVVTEIPKEEKDPGMGAMGGMGGGMGGGMF", "values": [
      {"measurement": "IgG antibodies to the antigen in serum, Mean ± SD", "setting": "[1]; Type 1 Diabetes children", "value": "0.6 Units of Optical Density at λ=405 nm"},
      {"measurement": "Positive (antibody level above cut-off)", "setting": "[1]; Type 1 diabetes children (n=20), cut-off = mean of normoglycemic children plus two SD", "value": 45, "unit": "%"},
      {"measurement": "Positive (antibody level above cut-off)", "setting": "[1]; Type 1 diabetes children (n=20), cut-off = mean of normoglycemic children plus two SD, listed as Hsp60", "value": 45, "unit": "%"},
      {"measurement": "Positive (antibody level above cut-off)", "setting": "[1]; healthy adult blood donors (n=15)", "value": 6, "unit": "%"},
      {"measurement": "Positive (antibody level above cut-off)", "setting": "[1]; healthy adult blood donors (n=15), listed as Hsp60", "value": 6.6, "unit": "%"},
      {"measurement": "IgG antibodies to the antigen in serum, Mean ± SD", "setting": "[1]; healthy adult blood donors", "value": "0.61 ± 0.12 Units of Optical Density at λ=405 nm"},
      {"measurement": "Positive (antibody level above cut-off)", "setting": "[1]; pediatric control serum donors / healthy children (n=10)", "value": 10, "unit": "%"},
      {"measurement": "Positive (antibody level above cut-off)", "setting": "[1]; pediatric control serum donors / healthy children (n=10), listed as Hsp60", "value": 10, "unit": "%"},
      {"measurement": "IgG antibodies to the antigen in serum, Mean ± SD", "setting": "[1]; pediatric control serum donors", "value": "0.45 ± 0.11 Units of Optical Density at λ=405 nm"},
      {"measurement": "Patients tested positive (proliferative response)", "setting": "[2]", "value": 92, "unit": "%"},
      {"measurement": "T-cell proliferative response, Stimulation Index (S.I.)", "setting": "[3]", "value": 1.25},
      {"measurement": "T-cell proliferative response, S.I., Mean ± SD", "setting": "[3]; Healthy subjects", "value": "1.79±0.74 and 1.7 ± 0.72"},
      {"measurement": "T-cell response, in words", "setting": "[3]; Type 1 Diabetes adult patients (Table 1D), tested after more than 12 weeks", "value": "not seen"},
      {"measurement": "T-cell proliferative response, S.I., Mean ± SD", "setting": "[3]; Type 1 Diabetes adult patients", "value": "1.22 ± 0.36"},
      {"measurement": "Responding subjects (S.I.≥2)", "setting": "[3]; Type 1 Diabetes children", "value": 85, "unit": "%"},
      {"measurement": "T-cell proliferative response, S.I., Mean ± SD", "setting": "[3]; Type 1 Diabetes children", "value": "3.6±2.6"},
      {"measurement": "T-cell proliferative response, S.I., Mean ± SD", "setting": "[3]; Type 2 Diabetes patients", "value": "1.7 ± 0.75"},
      {"measurement": "Responding subjects (S.I.≥2)", "setting": "[3]; healthy subjects / healthy blood donors", "value": 39, "unit": "%"}
    ]}
  ]
}
